Test results reported in patent US20180009892A1 (EUREKA THERAPEUTICS, published 2018).
Substitutions are numbered along the chain they refer to.

B1: P601-81 (scFv, V domains shown)
VH: EVQLVESGGGVVRPGGSLRLSCATSGFNFDNYGLSWVRQGPGKGLEWMGFIYKSVNTNYSPSLKSRLTISMDTSKNQFSLNLASVTTADTAIYYCARGKVETSVVDYWGQGTLVTVSS
VL: NFMLTQPRSVSESPGKTVTISCTGNGGRVANNYVQWYQQRPGSAPTTVIYEDNQRPSGVPARFSGSIDSSSNSASLTISGLKTDDEADYYCQSYDISNQRVFGGGTKLTVL
B2: P601-112 (scFv, V domains shown)
VH: EVQLVQSGGDLVQPGGSLRLSCAASGFTFSSYSMNWVRQAPGKGLEWVSSISSSSSYIYYADSVKGRFTISRDNAKNSLYLQMNSLRAEDTAVYYCARGLGGWTHDAFDIWGQGTTVTVSS
VL: QSALTQPASVSGSPGQSITISCTGTSSDVGGYNYVSWYQQHPGKAPKLMIYDVSKRPSGVSNRFSGSKSGNTASLTISGLQAEDEADYYCSSYTGRSTVFGGGTKLTVL
B3: P601-100 (scFv, V domains shown)
VH: B2 VH with D10G, L11V, S17P, T116M
VL: QSALTQPASVSGSPGQSITISCTGTSRDVGGYDYVSWYQQYPGNAPKLMIYDVSRRPSGVSHRFSASKSGNTASLTISGLQTEDEADYYCSSYTSSSTRVFGGGTKVTVL
B4: P601-109 (scFv, V domains shown)
VH: B2 VH with E1Q, V2M
VL: QSALTQPASVSGSPGQSITISCTGTSSDVGGYNYVSWYQQHPGKAPKLLIYEVSQRPSGVPDRFSGSKSGNTASLTVSGLQAEDEADYYCSSYAGDRDVFGTGTQLTVLS
B5: P601-120 (scFv, V domains shown)
VH: B2 VH
VL: B3 VL with R27S, D33N, Y41H, N44K, R55N, H62N, A66G, T82A, V107L
B6: P601-103 (scFv, V domains shown)
VH: B2 VH
VL: QSVLTQPASVSGSPGQSITISCTGTTSDVGGYNYVSWYQQHPGKAPKLMIYDVSKRPSGVSNRFSGSKSGNTASLTISGLQAEDEADYYCSSYTSSSTDVFGTGTKLTVL
B7: P601-110 (scFv, V domains shown)
VH: B2 VH with E1Q
VL: QSALTQPASVSGSPGQSITLSCTGTSSDVGGYNYVSWYQQHPGNGPKLIIYDVTKRPSGVSNRFSGSKSGNTAYLTISGLQAEDEADYYCASYTRSTTLVFGGGTKLTVL
B8: P601-153 (scFv, V domains shown, not shown: large carriers; small tags and cut ends)
VH: QMQLVQSGAEVKKPGASVKVSCKASGYTFTSYYMHWVRQAPGQGLEWMGIINPSGGSTSYAQKFQGRVTMTRDTSTSTVYMELSSLRSEDTAVYYCARGGYTGWSPSDPWGQGTLVTVSS
VL: B6 VL with V3A, T26S, L48F, S91G, Y93F, S97I, D99Y, L107V
B9: P601-137 (scFv, V domains shown)
VH: QVQLQQSGAEVKKPGASVKVSCKASGYTFSRYYIHWVRQAPGQGLEWMGIINTDGGTTTYAQKFQGRLTMTRDTSTSTVYMELSSLRSDDTAVYYCARDYGTIDARRFDYWGQGTLVTVSS
VL: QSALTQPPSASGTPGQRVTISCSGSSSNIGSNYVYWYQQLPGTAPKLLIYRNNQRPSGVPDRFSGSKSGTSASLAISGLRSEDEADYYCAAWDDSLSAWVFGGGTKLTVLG
B10: P601-136 (scFv, V domains shown)
VH: B9 VH with Q5V, I50L, T53P, D54G, T57S, T59N, L68V, S77N, M81L, Y110F
VL: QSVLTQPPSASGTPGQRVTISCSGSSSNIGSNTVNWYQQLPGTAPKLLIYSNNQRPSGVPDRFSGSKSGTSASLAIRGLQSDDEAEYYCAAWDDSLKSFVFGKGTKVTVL
B11: P601-40 (scFv, V domains shown)
VH: QVQLQQSGAEVKKPGASVKVSCKASGYTSTNYGISWVRQAPGQGLEWMGWISTYNGNTNYAQKLQGRVTMTTDTSTSTAYMELRSLRSDDTAVYYCARDYYSDSSGYWDDAFDIWGQGTMVTVSS
VL: DIQLTQSPSSLSASVGDRVTITCRASQNINNYLNWYQQKPGKAPKLLLYAASSLQSGVPSRFSGSGSGTEFTLTISSLHPEDFATYYCQQSYNTPFTFGPGTKVDIKR
B12: P601-6 (scFv, V domains shown)
VH: EVQLVESGGGLVKPGGSLKLSCAASGFTFSDYYMGWVRQAPGKGLKWLSYISDRAHTIYDTHSVKGRFTISRDDAKSSLYLRMNNLRVEDTAVYYCARAVGAGEGFDYWCQGTLVTVSS
VL: DIQMTQSPSSLSASVGDRVTITCQASQDIRNYLNWYQQKPGKAPKLLIYAASNLETGVPSRFSGSGSGTDFTFTISSLQPEDIATYYCQQDDNLPLTFGGGTKLEIK
B13: P601-149 (scFv, V domains shown, not shown: large carriers; small tags and cut ends)
VH: B12 VH with V2A, K19R, H62D, C110G
VL: B12 VL with M4L, I29V, K45N, A50D, S52T, T56S, I83F, D91Y, T97S, L104V
B14: P601-66 (scFv, V domains shown)
VH: QVQLVQSGAEVKEPGASVKVSCKASGYTFRNSGITWVRQAPGQGLEWMGWINPNSGGAMYVDNFQGRATMTRDTSINTAYMELRSLSSDDTAVYYCARGMADLIDVFDIWGQGTLVTVSS
VL: TQPALTQPASVSGSPGQSITISCTGTSSDFGDYDYVSWYQQHPGKAPKLMIYDVSDRPSGVSNRFSGSKSGNTASLTISGLQAEDEADYFCSSFTTSSTLVFGGGTKLTVL
B15: P601-101 (scFv, V domains shown)
VH: EVQLVQSGNEVKRPGASVKVSCKASGHSFSTYGFSWVRQAPGQGLEWMGWISTYNGNTNYAQKLQGRVTMTTDTSTSTAYMELRSLRSDDTAVYYCARDYYSDSSGYWDDAFDIWGQGTLVTVSS
VL: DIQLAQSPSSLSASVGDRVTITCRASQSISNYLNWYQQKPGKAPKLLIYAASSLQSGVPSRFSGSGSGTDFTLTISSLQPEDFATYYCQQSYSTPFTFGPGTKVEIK
B16: P601-13 (scFv, V domains shown)
VH: EVQLVQSGAEVKKPGSSVKVSCKASGGTFSTFAINWVRQAPGQGLEWMGGVIPVSGTEDYSQKFQGRLSLTADESTGTAYMELSSLRSDDTAVYYCARDRSGRDWDYFDYWGQGTLVTVSS
VL: DIVMTQSPSSLSASVGDRVTITCQASQDISNYLNWYQQKPGKAPKLLIYDASNLETGVPSRFSGSGSGTDFIFTISSLQPEDIATYYCQQFDNLPYTFGQGTKVEIKR
B17: P601-86 (scFv, V domains shown)
VH: QVTLKESGPTLLKPTQTLTLTCTFSGFSLSTRGVGVGWIRQPPGQALEWLTLIYWDDDKRYSPSLKSRLTITKDTSKNQVVLTMTNMESVDTATYYCAQQTMTGAFDIWGQGTTVTVSS
VL: DIQMTQSPSSVSASVGDRVTITCRASQGISTLLAWYQQKPGKAPKLLISSASSLQSGVPARFSGSGSGTDFTLTISSLQPEDFATYYCQQSYRAPTFGQGTKVEIKR
B18: P601-87 (scFv, V domains shown)
VH: QVQLQESGPGLVKSSETLSLTCTVSGGSMNNYYWSWIRQPAGKGLEWMGRIYSSGSTNYNPALKSRVTMSVDTSKNQFSLNLSSVTAADTAIYYCARASWSGTYWALFDYWGQGTLVTVSS
VL: ETTLTQSPAFMSATPGDKVNISCKASQDIDDDLNWYQQKPGEAPILIIQEATTLVPGIPPRFSGSGFGTDFTLTINSMQSEDVAYYFCLQHDNFPPTFGQGTKVEIK
B19: P601-65 (scFv, V domains shown)
VH: QVQLQQSGPGLVKPSQTLSLTCAISGDSVSSNSATWNWIRQSPSRGLEWLGRTYYRSKWYNDYAVSVKSRIIINPDTSKNQFSLQLNSVTPEDTAVYYCARGVRAFDIWGQGTTVTVSS
VL: QSVLTQPPSVSGTPGQRVTIFCSGGSNNIGRSSVYWYRQAAGTAPKLLIYKTDQRPSGVPDRFAASKSGASASLAISGLRSEDEADYHCATWDDSLSAVVFGGGTKLTVL
B20: P601-130 (scFv, V domains shown)
VH: EVQLVETGGGLVKPGGSLRLSCEASGFSLSSYSMNWVRQAPGKGLEWVSSISSSSTHIYYADSLKGRFTISRDNAKNSLFLQMDNLRAEDTAVYYCARATIGFDYWGQGTLVTVSS
VL: QSVLTQPPSVSGAPGQRVTISCTGSSSNIGAGYDVHWYQQLPGTAPKLLIYGNSNRPSGVPDRFSGSKSGTSASLAITGLQAEDEADYYCQSYDSSLSGYVFGTGTKLTVL
B21: P601-3 (scFv, V domains shown)
VH: QVTLKESGPTLVKPTQTLTLTCTFSGFSLNSFGVAVGWFRQPPGKALEWLGLIYWDDDRRYFPSLEGRLSITKDASDNNVVLTMMNVDPADTATYYCARTSPMVQGIANYYAMDVWGQGTTVTVSS
VL: not shown
B22: P601-2 (scFv, V domains shown)
VH: QVTLKESGPTLVKPTQTLTLTCTFSGFSLSSFGVAVGWFRQPPGKALEWLGLIYWDDDKRYSPSLKTRLTITKDTSKNQVVLTMTNMDPVDTATYYCAHKGGIATTGSPNWFDPWGQGTLVTVSS
VL: not shown
B23: P601-5 (scFv, V domains shown)
VH: B12 VH with K19R, H62D, C110G
VL: not shown

The binders below were run against T1, human ROR1 extracellular domain (ECD) protein (human, UniProt Q01973 30-406) (assay: competitive phage ELISA: soluble ROR1 against ROR1-coated plate).
T1 construct: also called hROR1-ECD; human ROR1-ECD
T1 sequence (Q01973 30-406 limits assumed): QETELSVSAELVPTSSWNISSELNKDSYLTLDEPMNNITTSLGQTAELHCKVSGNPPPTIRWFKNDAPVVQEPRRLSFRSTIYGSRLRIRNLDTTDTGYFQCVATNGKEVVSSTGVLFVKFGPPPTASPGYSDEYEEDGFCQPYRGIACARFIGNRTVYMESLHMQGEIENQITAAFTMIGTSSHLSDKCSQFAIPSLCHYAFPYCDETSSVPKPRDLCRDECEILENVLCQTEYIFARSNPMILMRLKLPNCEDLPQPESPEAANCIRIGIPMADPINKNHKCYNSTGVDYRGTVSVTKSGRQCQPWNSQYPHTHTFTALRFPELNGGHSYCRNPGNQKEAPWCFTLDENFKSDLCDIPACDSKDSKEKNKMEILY
Description: Purified phage antibodies were first diluted serially in PBST buffer, and tested for binding to a ROR1-coated plate. The dilution that gave 50-80% saturating signal was used in the solution binding assay in which phage were first incubated with increasing concentration of ROR1 for one to two hours, and then transferred to a ROR1-coated plate for 10-15 minutes to capture the unbound phage.
In the case of B1, the IC50 is reported as 2.76 nM.
B2 was tested, and the IC50 was 2.89 nM.
Work on B3 yielded an IC50 of 5.8 nM.
In the case of B4, the IC50 is reported as 0.22 nM.
With B5 the IC50 was 1.92 nM.
B6 gave an IC50 of 8.72 nM.
In the case of B7, the IC50 is reported as 4.57 nM.
For B8, the IC50 was 1.53 nM.
Work on B9 yielded an IC50 of 1.82 nM.
B10 showed an IC50 of 3.02 nM.
For B11, the IC50 was 0.2 nM.
B12 gave an IC50 of 2.12 nM.
With B13 the IC50 was 2.76 nM.
B14 gave an IC50 of 4.05 nM.
In the case of B15, the IC50 is reported as 1.5 nM.
B16 showed an IC50 of 1.21 nM.
Work on B17 yielded an IC50 of 1.84 nM.
B18 showed an IC50 of 3.86 nM.
Binder B19 has an IC50 of 4.23 nM.
B20 was tested, and the IC50 was 3.08 nM.

What follows are binders tested against T2, human ROR2-ECD (human, UniProt Q01974 34-403) (assay: protein ELISA, phage).
T2 construct: extracellular domain; also called hROR2
T2 sequence (Q01974 34-403): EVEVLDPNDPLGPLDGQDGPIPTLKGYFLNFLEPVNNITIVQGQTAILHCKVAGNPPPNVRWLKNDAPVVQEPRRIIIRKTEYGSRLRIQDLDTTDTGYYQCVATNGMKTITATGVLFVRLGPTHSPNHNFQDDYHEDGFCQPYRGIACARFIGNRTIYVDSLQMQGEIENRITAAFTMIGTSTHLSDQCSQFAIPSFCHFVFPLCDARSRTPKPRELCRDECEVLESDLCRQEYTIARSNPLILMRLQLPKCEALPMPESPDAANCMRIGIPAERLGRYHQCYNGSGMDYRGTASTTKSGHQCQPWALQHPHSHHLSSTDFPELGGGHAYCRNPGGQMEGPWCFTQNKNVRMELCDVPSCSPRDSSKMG
B21: no binding.
B1: no binding.
B2: no binding.
B3: no binding.
B4: no binding.
B5: no binding.
B6: no binding.
B7: no binding.
B22: no binding.
B9: no binding.
B10: no binding.
B11: no binding.
B23: no binding.
B15: no binding.
B16: no binding.
B17: no binding.
B18: no binding.
B19: no binding.
B20: no binding.
